The source of these data is PMC4383634, “Dual-Specificity Anti-sigma Factor Reinforces Control of Cell-Type Specific Gene Expression in Bacillus subtilis” (PLoS Genetics, 2015).

Common to all, as to settings: both partners purified
Assay [1] concerns the target T1, GST-σ^E fusion protein, lacking its pro region (sigma fragment a) (B. subtilis, UniProt P06222 30-239).
T1 construct: source: E. coli, overproduced and partially purified; not shown: GST, N-terminal, kept
T1 sequence (looked up): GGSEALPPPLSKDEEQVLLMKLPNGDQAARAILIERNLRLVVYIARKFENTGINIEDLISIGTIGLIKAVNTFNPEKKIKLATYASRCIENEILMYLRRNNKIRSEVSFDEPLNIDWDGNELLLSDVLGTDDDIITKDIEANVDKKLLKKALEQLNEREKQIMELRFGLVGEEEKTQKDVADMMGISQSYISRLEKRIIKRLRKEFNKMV
Briefly: pull-down; GST or GST-σ^E fusions on glutathione beads incubated with CsfB-Strep II (100 nM); after washing, eluted proteins immunoblotted with anti-Strep II tag antibody. A general note: In western blotting, separated proteins are transferred to a membrane and probed.

In assay [2] the target is T2, GST-σ^(E 30–141) (B. subtilis, UniProt P06222 30-141).
T2 construct: also called fragment c; regions 2.1 through 2.4; source: E. coli, overproduced and partially purified; not shown: GST, N-terminal, kept
T2 sequence (looked up): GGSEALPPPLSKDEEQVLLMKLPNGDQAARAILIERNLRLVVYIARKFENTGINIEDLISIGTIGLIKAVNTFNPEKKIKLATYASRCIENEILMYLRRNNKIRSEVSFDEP
The description is as above.

The target in assay [3] is T3, GST-σ^(E 30–172) (B. subtilis, UniProt P06222 30-172).
T3 construct: σ^E of B. subtilis, residues 30-172, regions 2.1 through 3.1; also called fragment d; regions 2.1 through 3.1; source: E. coli, overproduced and partially purified; not shown: GST, N-terminal, kept
T3 sequence (looked up): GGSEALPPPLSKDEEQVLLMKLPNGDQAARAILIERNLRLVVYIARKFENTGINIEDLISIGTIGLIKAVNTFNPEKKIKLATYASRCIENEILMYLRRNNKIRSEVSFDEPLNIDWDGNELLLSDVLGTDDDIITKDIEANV
The assay is described as above.

The target in assay [4] is T4, σ^E, untagged, lacking its pro-sequence (B. subtilis, UniProt P06222 30-239).
T4 construct: printed molecular weight 29 kDa; a tag was perhaps removed; also called purified σ^E; source: E. coli, overproduced, purified
T4 sequence (looked up): T1 sequence (looked up)
Briefly: pull-down; Ni2+-NTA affinity chromatography: His6-CsfB held on the column, untagged purified σ^E or σ^K applied, eluted with an imidazole buffer, SDS-PAGE and Coomassie staining.

B1: CsfB-StrepII-tagged protein (natural protein, B. subtilis, UniProt P37534 1-64, looked up)
chain: MDETVKLNHTCVICDQEKNRGIHLYTKFICLDCERKVISTSTSDPDYAFYVKKLKSIHTPPLYS
notes: CsfB (Gin), anti-sigma factor of B. subtilis; source: E. coli, overproduced and partially purified; not shown: Strep II tag, C-terminal, kept
Consider B1, for which the binding result in assay [1], in assay [2] and in assay [3] was “binds” each time.

B2: His6-CsfB (natural protein, B. subtilis, UniProt P37534 1-64, looked up)
chain: B1 chain
notes: CsfB (Gin), anti-sigma factor of B. subtilis; the plasmid is described in S1 Text; also called purified CsfB; source: E. coli, overproduced, purified (Ni-NTA, Superdex 75); not shown: His6, N-terminal, kept
As to B2, in assay [4], the binding result is given as “binds”.
